We go through 3 molecules from patent publication US20250236644A1 (University of Washington, published 2025).

In assay [1] the target is T1, effector peptide cs201B.
T1 construct: Unlabeled
T1 peptide: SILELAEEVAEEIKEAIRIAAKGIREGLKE
The assay can be described thus: FRET kinetics; slope of kapp against peptide concentration. As for the experimental part: (§1) FIG. 14. Columns 1-3: FRET kinetics using extended hinges labeled with AlexaFluor™ 555 and AlexaFluor™ 647 at a constant concentration (2 nM for cs201F and cs074F, 5 nM for cs221F) and corresponding peptides at varying concentrations. Column 4: FP kinetics using TAMRA-labeled peptide cs074B at 2 nM and extended hinge cs074F at varying concentrations. All kinetic traces (rows 1-8) were fitted using a single-exponential equation (black lines). […] The slope of the linear fit gives the observed on rate kₒₙ.
(§2) For FRET kinetics experiments a 2× hinge solution and 8 different 2× effector solutions at different concentrations were prepared separately. 40 μl of each effector solution were mixed with 40 μl hinge solution using a multichannel pipet and the measurement was started immediately after mixing. Fluorescence signals S at each concentration were fitted individually to the equation

Assay [2] addresses T2, effector peptide cs221B.
T2 construct: Unlabeled
T2 peptide: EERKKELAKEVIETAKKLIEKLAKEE
The assay can be described thus: FRET titration, 2 nM labeled hinge. As for the experimental part:
(§3) Dotted lines in spectra indicate acceptor and donor emission peaks. B) Kinetic model describing the coupling of the conformational equilibrium to the binding equilibrium. X and Y: hinge in state X and Y, respectively; P: peptide; YP: peptide bound to hinge in state Y. k₁, k₋₁, k₋₂, and […] the microscopic rate constants. C) FP characterization of unlabeled extended hinge cs074F. From left to right: binding titration at 0.1 nM TAMRA-labeled peptide and varying hinge concentrations; time course after mixing 2 nM TAMRA-labeled peptide and 100 nM hinge fitted with a single-exponential equation (black line); apparent rate constants obtained from single-exponential kinetic fits plotted against absolute hinge concentrations (circles) and fitted with a linear equation (black line). D) FRET-based reversibility experiment using the labeled extended hinge […] introduced in C). Hinge concentration is 30 nM for all traces; 1 μM peptide is added at t=0, 3 μM unlabeled competitor hinge is added after 1 h. E) Top from left to right: schematic representation of the inpainting procedure that adds two helices to the peptide cs074B yielding a three-helix bundle (3hb); cylindrical representation of 3hb_05 bound to hinge cs074; overlay of design model and crystal structure of 3hb_05. Bottom from left to right: SEC traces for hinge cs074, 3hb_05, and a mixture of both; FRET-based titration of 2 nM extended labeled hinge cs074F and varying concentrations of 3hb_05 fitted with a standard binding isotherm (back line); Distance distributions obtained from DEER experiments as described in FIG. 2 (cs074, cs074+peptide cs074B, cs074+3hb_05).
(§4) Titrations were carried out in 96-well format, with 4 replicates per plate and 24 data points per titration (23 steps of two-fold serial dilution of effector (peptide or 3hb) in the presence of double-labeled hinge at a constant concentration of 2 nM) with a final sample volume of 80 μl per well. Titration plates were incubated overnight at room temperature before measuring to ensure complete equilibration. The raw fluorescence signal (donor emission upon acceptor excitation) was fitted to the equation

In assay [3] the target is T3, effector peptide cs074B.
T3 construct: Chemically synthesized, unlabeled
T3 peptide: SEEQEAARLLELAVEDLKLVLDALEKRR
The assay can be described thus: FRET titration, 2 nM labeled hinge. On the procedure:
as §3, §4

Assay [4] addresses T1, effector peptide cs201B. The assay can be described thus: FRET titration; 2 nM labeled hinge, effector varied. As for the experimental part: as §3, §4
The target of assay [5] is T3, effector peptide cs074B. The assay can be described thus: FRET kinetics; slope of kapp against peptide concentration. As for the experimental part:
as §1, §2

The target in another assay is T4, effector protein 3hb03.
T4 construct: Three-helix bundle built around peptide cs074B
T4 chain: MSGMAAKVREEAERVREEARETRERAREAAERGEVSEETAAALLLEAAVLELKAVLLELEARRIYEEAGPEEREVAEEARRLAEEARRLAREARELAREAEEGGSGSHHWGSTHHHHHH
The assay can be described thus: FRET titration; 2 nM labeled hinge, effector varied. As for the experimental part: as §3, §4

In the next assay the target is T5, effector protein 3hb12.
T5 construct: Three-helix bundle built around peptide cs074B
T5 chain: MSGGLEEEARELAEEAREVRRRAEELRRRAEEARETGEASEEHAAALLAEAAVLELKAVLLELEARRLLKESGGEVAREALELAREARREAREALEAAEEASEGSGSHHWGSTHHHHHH
The assay is described as above. On the procedure:
as §3, §4

The next assay concerns the target T6, effector protein 3hb05.
T6 construct: Three-helix bundle built around peptide cs074B
T6 chain: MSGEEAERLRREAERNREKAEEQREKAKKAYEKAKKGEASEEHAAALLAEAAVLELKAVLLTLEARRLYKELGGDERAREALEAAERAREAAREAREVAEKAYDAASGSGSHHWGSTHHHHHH
Described as above. On the procedure: as §3, §4

A further assay has as its target T7, effector protein 3hb11.
T7 construct: Three-helix bundle built around peptide cs074B
T7 chain: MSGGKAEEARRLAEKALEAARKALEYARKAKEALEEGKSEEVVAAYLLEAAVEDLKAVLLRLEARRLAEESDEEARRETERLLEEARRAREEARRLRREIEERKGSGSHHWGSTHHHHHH
The description is as above. As for the experimental part:
as §3, §4

The target in the next assay is T8, effector protein 3hb08.
T8 construct: Three-helix bundle built around peptide cs074B
T8 chain: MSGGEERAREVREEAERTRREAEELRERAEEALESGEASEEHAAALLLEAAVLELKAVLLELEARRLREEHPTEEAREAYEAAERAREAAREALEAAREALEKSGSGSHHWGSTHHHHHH
Described as above. On the procedure:
as §3, §4

Assay [6] concerns the target T3, effector peptide cs074B. The description is as above. As for the experimental part:
as §3, §4

A further assay deals with T9, effector protein 3hb04.
T9 construct: Three-helix bundle built around peptide cs074B
T9 chain: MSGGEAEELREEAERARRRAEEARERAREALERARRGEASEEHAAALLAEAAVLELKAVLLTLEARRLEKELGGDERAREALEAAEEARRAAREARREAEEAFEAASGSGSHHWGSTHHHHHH
The assay is described as above. On the procedure:
as §3, §4

The target of assay [7] is T2, effector peptide cs221B. The assay can be described thus: FRET titration; 2 nM labeled hinge, off-target peptide varied. As for the experimental part: (§5) The buffer for all FRET measurements was 20 mM Tris-HCl, 100 mM NaCl, 0.05% v/v TWEEN®20 at pH 8. Fluorescence spectra were recorded at room temperature using a FluoroMax™ spectrometer in a 1 cm×1 cm cuvette at a sample volume of 3 ml. FRET titrations and kinetics measurements were performed at 25° C. in 96-well plates (Corning 3686) using a Synergy Neo2™ plate reader. Excitation wavelength was 520 nm and emission wavelength was 665 nm (except for donor-donor controls for which emission wavelength was 555 nm, see FIG. 13B right column).
as §4

In assay [8] the target is T1, effector peptide cs201B. The description is as above. As for the experimental part: as §5, §4
In assay [9] the target is T2, effector peptide cs221B. The assay can be described thus: FRET kinetics; slope of kapp against peptide concentration. On the procedure:
as §1, §2

The target of assay [10] is T1, effector peptide cs201B. The assay can be described thus: FRET titration, 2 nM labeled hinge. On the procedure:
as §3, §4

The target in assay [11] is T10, effector protein 3hb21.
T10 construct: Three-helix bundle built around peptide cs221B
T10 chain: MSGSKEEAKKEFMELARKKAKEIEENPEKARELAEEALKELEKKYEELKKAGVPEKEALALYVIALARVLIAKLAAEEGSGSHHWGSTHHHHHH
The assay can be described thus: FRET kinetics; 5 nM hinge, 3hb varied. On the procedure:
(§6) FIG. 18. FRET-based quantitative analysis of the interaction between cs221F and 3hb21. Individual kinetic traces were obtained using a constant hinge concentration of 5 nM and varying 3hb concentrations as indicated by plot labels. Single exponential fits give apparent rate constants that increase linearly with the total 3hb concentration (points in pseudo-first order plot). The linear fit of kₐₚₚ against 3hb concentration gives an observed on rate that is 5 times faster than the observed on rate of the original peptide.
as §2

The target in assay [12] is T10, effector protein 3hb21. The assay can be described thus: FRET titration; 2 nM labeled hinge, effector varied. As for the experimental part:
as §3, §4

Assay [13] deals with T2, effector peptide cs221B. The assay is described as above. As for the experimental part: as §3, §4
Assay [14] has as its target T10, effector protein 3hb21. The assay can be described thus: FRET kinetics; 5 nM labeled hinge, slope of kapp against 3hb concentration.
For assay [15], the target named is T10, effector protein 3hb21. The assay can be described thus: FRET titration; 2 nM hinge cs221F, 3hb varied. On the procedure: as §6, §4

B1: FRET(extension) cs201F, labeled with AlexaFluor 555 and AlexaFluor 647 (designed binder)
chain: MSGDEEVQEAVERAEELREEAEELIKKARKTGDPELLRKALEALEEAVRAVEEAICRNPDNDEAVETAVRLARELKKVAEELQERAKKTGDPELLKLALRALEVAVRAVELAIKSNPDNDEAVETAVRLARELKKVAEELQERAKKTGDPELLKLALRALEVAVRAVELAIKRNPDNEEAIKTALRLARELRKVAKELIERARKTGDAELLKKALEAARVAVEAVRLAAEYNKENAEKMAELLVELAELAREVADVLIELAEKTGDPELLKKALEVLEEAVEAVRLAIEYDPDHDEAVETAVRLARELKKVAEELQERAKKTGDPELLKLALRALEVAVRAVELAIKSNPDNEEAVETAKRLAEELRKVAELLEERAKETGDPCLQELAKRAKEVADRARELAKKSNPNNGSGSHHWGSTHHHHHH
modifications: the two introduced cysteines stochastically labeled with an equal mixture of AlexaFluor 555 C2 maleimide (donor) and AlexaFluor 647 C2 maleimide (acceptor)
notes: also called FRET-labeled hinge cs201F
On to B1, for which, in the assay with effector peptide cs201B [1], the kon (commonly the rate constant with which the complex forms) stood at 4500 M⁻¹ s⁻¹. The binding result in the assay with effector peptide cs221B [2] and in the assay with effector peptide cs074B [3] was “no binding (tested: µM concentrations)” throughout. Besides, in the assay with effector peptide cs201B [4], the Kd (as a rule, the constant that tells how readily two partners part at equilibrium) was found to be 20 nM.

B2: FRET(extension) cs074F, labeled with AlexaFluor 555 and AlexaFluor 647 (designed binder)
chain: DEEVQEAVERAEELREEAEELIKKARKTGDPELLRKALEALECAVRAVEEAIKRNPDNDEAVETAVRLARELKKVAEELQERAKKTGDPELLKLALRALKVAVRAVKLAIKSNPDNEEAVKTAVRLARELLKVAEELKERAEKTGDPRLLLLAAEAIAWAIEAVFLAAKASENTEGALEAARAAVKLAEVAKRIAKLLQRDAKKEGDPELLKLALRALELAVRAVELAIKENPDNDEAVETAVRLARELKKVAEELQERAKKTGDPELLKLALRALEVAVRAVELAIKSNPDNEEAVETAKRLAEELRKVAELLEERACETGDPELQELAKRAKEVADRARELAKKSNPNNGSHHHHHH
modifications: the two introduced cysteines stochastically labeled with an equal mixture of AlexaFluor 555 C2 maleimide (donor) and AlexaFluor 647 C2 maleimide (acceptor)
notes: Extended hinge cs074 used in the FRET assays; also called extended labeled hinge cs074F
The molecule B2 returned an association rate constant (kon) with effector peptide cs074B [5] of 170000 M⁻¹ s⁻¹. The dissociation constant (Kd) with effector protein 3hb03, with effector protein 3hb12, with effector protein 3hb05, with effector protein 3hb11, with effector protein 3hb08 and in the assay with effector peptide cs074B [6] was under 2 nM each time. Moreover, the Kd with effector protein 3hb04 is under 2 nM; with effector peptide cs221B [7] it was 130 nM; with effector peptide cs201B [8], 2500 nM.

B3: FRET(extension) cs221F, labeled with AlexaFluor 555 and AlexaFluor 647 (designed binder)
chain: MSGEMVEEIEKLAEELAKKTKDCEVKKLAKKAAELAKKSTDEMKKEIVKDALELALRTKDEEVIRLALKAAVLAAESDDEEVKEVVKKALEAALKSKDEEVIRLLLLAAVLAAAAARSGSPEEKLEIAKKALELAMKSKDEEVIRLALLAAVLAARSDDEEVLKIVKKALELAMESKDVEVIRLALEAAVLAARSTDPEKKKCVYEALEKAMESKDEEEIKKELKAAVEKARSTEGSGSHHWGSTHHHHHH
modifications: the two introduced cysteines stochastically labeled with an equal mixture of AlexaFluor 555 C2 maleimide (donor) and AlexaFluor 647 C2 maleimide (acceptor)
B3: the on-rate constant (kon) with effector peptide cs221B [9] was found to be 2600 M⁻¹ s⁻¹; in the assay with effector protein 3hb21 [14], 13000 M⁻¹ s⁻¹. Besides, the binding result in the assay with effector peptide cs201B [10] and with effector peptide cs074B [3] was “no binding (tested: µM concentrations)” each time. In addition, the “fold faster observed on rate than the original peptide cs221B” value with effector protein 3hb21 [11] worked out at 5 fold. Moreover, the results for the Kd in the assay with effector protein 3hb21 [12], in the assay with effector peptide cs221B [13] and with effector protein 3hb21 [15] were 2.2 nM, 21 nM and under 2 nM, respectively. The “fold stronger KD than the original peptide cs221B” value with effector protein 3hb21 [15] turned out to be 20 fold.
